These results are taken from paper PMC11205783, “HigA2 (Rv2021c) Is a Transcriptional Regulator with Multiple Regulatory Targets in Mycobacterium tuberculosis”.

To fix the notation:
T1: HigA2 (Mycobacterium tuberculosis H37Rv, UniProt O53467 1-101)
T1 sequence: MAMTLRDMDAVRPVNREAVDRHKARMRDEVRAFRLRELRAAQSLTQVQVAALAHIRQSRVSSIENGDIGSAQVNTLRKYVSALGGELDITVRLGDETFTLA

B1: seq6 m6 (dsDNA)
DNA 1: CGCTGCTCTTACCCGGAGGAGCATCACCCTTGTGTGATCACGCGTATCGCGCTACTCTG
DNA 2: CAGAGTAGCGCGATACGCGTGATCACACAAGGGTGATGCTCCTCCGGGTAAGAGCAGCG
B2: seq6 m5 (dsDNA)
DNA 1: CTGCTCAAAGATCGACTAGTATATCACAGGTCCGTGATATGACGTATACCTTTGGTGCA
DNA 2: TGCACCAAAGGTATACGTCATATCACGGACCTGTGATATACTAGTCGATCTTTGAGCAG
B3: seq6 m4 (dsDNA)
DNA 1: CGCTGCTCTTACCCGGAGGAATATCACAGGTCCGTGATATCGCGTATCGCGCTACTCTG
DNA 2: CAGAGTAGCGCGATACGCGATATCACGGACCTGTGATATTCCTCCGGGTAAGAGCAGCG

The series concerns the target T1, HigA2. Put plainly: EMSA; EMSA: 20 mM Tris-HCl, 150 mM NaCl, pH 8.0, 37 °C, 5 min, HigA2 1 uM (titrated in Fig 4); agarose or native PAGE. Pull-down: streptavidin beads, 4 °C, PBS washes. Conditions: protein: recombinant; tags: C-terminal 6xHis; chain copies: 2.
As to B1, the binding result was “binds”.

Turning to B2, the binding result is given as “binds”.

In the case of B3, the binding result is on record as “binds”.
